Test results reported in publication PMC5286426, “The Calcium-Dependent Switch Helix of L-Plastin Regulates Actin Bundling” (Scientific Reports, 2017).

Target: L-plastin EF construct (EF-hand headpiece domain, H5 region omitted) (human)
Assay: SPR; EF construct immobilised by its sole cysteine (Cys42) on a CM5 chip by thiol coupling; peptides injected; BIAcore X100; 10 mM Tris-HCl pH 7.5, 150 mM KCl, 1 mM CaCl2, 0.005% Tween-20; 30 uL/min, contact 1 min, 25 °C

Kd: 3.52 µM
Binder: Ac-STDVAKTFRKAINKKEGI-NH2 [synthetic H5 peptide representing the H5 region of LPL (residues 83-100)]
